Molecular target: the molecule itself
Experiment: SEC

B1: recombinant human his-GAPDHS (sperm-specific glyceraldehyde-3-phosphate dehydrogenase lacking the proline-rich N-terminal sequence) (enzyme)
chain: MVSVARELTVGINGFGRIGRLVLRACMEKGVKVVAVNDPFIDPEYMVYMFKYDSTHGRYKGSVEFRNGQLVVDNHEISVYQCKEPKQIPWRAVGSPYVVESTGVYLSIQAASDHISAGAQRVVISAPSPDAPMFVMGVNENDYNPGSMNIVSNASCTTNCLAPLAKVIHERFGIVEGLMTTVHSYTATQKTVDGPSRKAWRDGRGAHQNIIPASTGAAKAVTKVIPELKGKLTGMAFRVPTPDVSVVDLTCRLAQPAPYSAIKEAVKAAAKGPMAGILAYTEDEVVSTDFLGDTHSSIFDAKAGIALNDNFVKLISWYDNEYGYSHRVVDLLRYMFSRDK
For B1, the “stoichiometry N” value was 4.

Source: paper PMC2992962 (Protein expression and purification, 2010)
